Drawing on patent US20240409617A1 (Dana-Farber, published 2024), this text covers Kd, koff and kon for one molecule.

The target in this experiment is Human FcRn, biotinylated (human, UniProt P55899 24-297; P61769 21-119).

B1: Ab2-7 scFv-Fc (Fc fusion)
chain 1: QVTLKESGPTRVKPTQTLTLTCTFSGFSLSTTGVGVGWIRQPPGKALEWLALIYWNDDKRYSPSLKSRLTITKDTSKNQVVLTMTNMDPVDTATYYCARISGSGYFYPFDIWGQGTTVTVSS
chain 2: NFMLTQPHSVSESPGKTVTISCTRSSGSIASNYVQWYQQRPGSSPTTVIYEDNQRPSGVPDRFSGSIDSSSNSASLTISGLKAEDEADYYCQSYDSSSLWVFGGGTKLTVL
Turning to B1, the affinity, expressed as Kd, was 11.7 nM; the koff was found to be 0.00198 s⁻¹; the kon was 169000 M⁻¹ s⁻¹.

For orientation: Kd means a measure of binding affinity in units of concentration. Read a high Kd as weaker binding. By koff is commonly meant a measure of how fast the partners let go of each other. A lower koff goes with slow dissociation. Usually kon stands for the rate constant with which the complex forms.
